According to patent US20210380680A1 (ZLLP, published 2021):
Read-outs that look alike come from different tables or passages of the source.

Key:
[1] = target: T1, human Claudin 18.2 (CLDN18.2) (human, UniProt P56856-2 1-261); assay: cell-based or functional assay
[2] = target: T1, human Claudin 18.2 (CLDN18.2); assay: cell-based or functional assay; remark: listed apart in the source
[3] = target: T1, human Claudin 18.2 (CLDN18.2); assay: FACS on CHO-CLDN18.2 cells
[4] = target: T1, human Claudin 18.2 (CLDN18.2); assay: cell-based or functional assay; remark: listed apart in the source
[5] = target: T1, human Claudin 18.2 (CLDN18.2); assay: cell-based or functional assay; remark: listed apart in the source
[6] = target: T1, human Claudin 18.2 (CLDN18.2); assay: FACS on CHO-CLDN18.2 cells; remark: listed apart in the source
[7] = target: T1, human Claudin 18.2 (CLDN18.2); assay: cell-based or functional assay; remark: listed apart in the source
[8] = target: T1, human Claudin 18.2 (CLDN18.2); assay: cell-based or functional assay; remark: listed apart in the source
[9] = target: T1, human Claudin 18.2 (CLDN18.2); assay: FACS Exp. 1, MFI ratio CHO-18.2 over CHO-18.1
[10] = target: T1, human Claudin 18.2 (CLDN18.2); assay: FACS Exp. 2, MFI ratio CHO-18.2 over CHO-18.1
[11] = target: T1, human Claudin 18.2 (CLDN18.2); assay: FACS on CHO-CLDN18.2 cells; remark: listed apart in the source
[12] = target: T2, CLDN18.2 endogenously expressed on SNU620 gastric cancer cells (UniProt P56856-2 1-261, limits assumed); assay: FACS Exp. 3, SNU620 cells
T2 construct: whole, on cells; also called SU620

% ADCC @ 6.67 nM, NCI-N87-CLDN18.2, FcR-TANK [2] [%] | ADCC EC50, NCI-N87-CLDN18.2, FcR-TANK [2] [nM] | CDC EC50, human serum, CHO-CLDN18.2 [4] [nM] | ADCC EC50, NCI-N87-18.2 cells, FcR-TANK effectors [5] [nM] | Binder | % specific cytotoxicity @ 6.67 nM, NUGC4-CLDN18.2, PBMC [7] [%] | also measured
– | – | – | – | hz282-11-V2 (antibody, V domains shown) VH: QVQLQESGPGLVKPSETLSLTCTVSGFSLTSYNVYWIRQPPGKGLEWIGVIWNTGATRYNSALKSRVTISKDTSKSQVSLKLSSVTAADTAVYYCARDSAMPAIPFAYWGQGTLVTVSS VL: DIQMTQSPSSLSASVGDRVTITCKSSQSLFGSVRQKNYLAWYQQKPGKAPKLLIYLASTRESGVPSRFSGSGSGTDFTLTISSLQPEDFATYYCQQYYDIPWTFGGGTKVEIK | – | % internalization, NCI-N87-CLDN18.2, 37 C 2 h [1]: > 50%; % internalization, NUGC4-CLDN18.2, 37 C 2 h [1]: > 80%
– | – | – | – | hz282-15-V2 (antibody, V domains shown) VH: QVQLQESGPGLVKPSETLSLTCTVSGFSLTSYNVYWIRQPPGKGLEWIGVIWNTGATRYNSALKSRVTISKDTSKSQVSLKLSSVTAADTAVYYCARDSAMPAIPFAYWGQGTLVTVSS VL: DIQMTQSPSSLSASVGDRVTITCKSSQSLFGSVRQKNYLAWYQQKPGKSPKLLIYLASTRESGVPDRFSGSGSGTDFTLTISSLQPEDFAKYYCQQYYDIPWTFGGGTKVEIK | – | % internalization, NCI-N87-CLDN18.2, 37 C 2 h [1]: > 50%; % internalization, NUGC4-CLDN18.2, 37 C 2 h [1]: > 80%
13.9 | 0.33 | 0.76 | 7.84 | 413H9F8-VL-S32V (antibody, human IgG1, kappa, V domains shown, chimeric human IgG1, PTM site removed; also called 413H9F8-VL-32V; 413H9F8-VL-532V) VH: DVQLVESGGGSVQPGGSRRLSCAASGFTFSSFGMHWVRQAPEKGLEWVAYISSGSSPIYYVDKLKGRFTVSRDNPKNTLFLQMTSLRSEDTAMYYCARAGYAVRNALDYWGQGTSITVSS VL: DIVMTQSPSSLSVSVGEKVTLSCKSSQSLLNVGNQKNYLAWYQQKTGQPPKLLIYGASTRESGVPDRFIGSGSGTDFTLTISSVQAEDLAVYFCQNDLFYPLTFGAGTKLELKR | 31.4 | EC50 [3]: 1.84 nM; EC50 [6]: 2.14 nM; ADCC EC50, NUGC4-CLDN18.2 cells, PBMC [7]: 7.69 nM
– | – | – | – | 413H9F8-VL-S32V-V2-DL (antibody, V domains shown) VH: DVQLVESGGGSVQPGGSRRLSCAASGFTFSSFGMHWVRQAPEKGLEWVAYISSGSSPIYYVDKLKGRFTVSRDNPKNTLFLQMTSLRSEDTAMYYCARAGYAVRNALDYWGQGTSITVSS VL: DIVMTQSPSSLSVSVGEKVTLSCKSSQSLLNVGNQKNYLAWYQQKTGQPPKLLIYGASTRESGVPDRFIGSGSGTDFTLTISSVQAEDLAVYFCQNDLFYPLTFGAGTKLELK | – | % internalization, NCI-N87-CLDN18.2, 37 C 2 h [1]: < 30%; % internalization, NUGC4-CLDN18.2, 37 C 2 h [1]: < 15%
– | – | – | 8.56 | 413H9F8-VL-S32L (antibody, human IgG1, kappa, V domains shown) VH: DVQLVESGGGSVQPGGSRRLSCAASGFTFSSFGMHWVRQAPEKGLEWVAYISSGSSPIYYVDKLKGRFTVSRDNPKNTLFLQMTSLRSEDTAMYYCARAGYAVRNALDYWGQGTSITVSS VL: DIVMTQSPSSLSVSVGEKVTLSCKSSQSLLNLGNQKNYLAWYQQKTGQPPKLLIYGASTRESGVPDRFIGSGSGTDFTLTISSVQAEDLAVYFCQNDLFYPLTFGAGTKLELKR | – | –
16.3 | 0.37 | 1.07 | – | 413H9F8-H1L3 (antibody, V domains shown, humanized IgG; constant regions not specified) VH: EVQLVESGGGLVQPGGSLRLSCAASGFTFSSFGMHWVRQAPGKGLEWVSYISSGSSPIYYVDKLKGRFTISRDNAKNSLYLQMNSLRAEDTAVYYCARAGYAVRNALDYWGQGTLVTVSS VL: DIVMTQSPDSLAVSLGERATINCKSSQSLLNVGNQKNYLAWYQQKPGQPPKLLIYGASTRESGVPDRFIGSGSGTDFTLTISSLQAEDVAVYFCQNDLFYPLTFGGGTKVEIK | – | % specific cytotoxicity @ 6.67 nM, NUGC4-CLDN18.2, PBMC [8]: 34.6%; ADCC EC50, NUGC4-CLDN18.2, PBMC [8]: 4.38 nM; EC50 [6]: 2.38 nM
13.3 | 0.44 | 1.66 | – | 413H9F8-cp1 (antibody, V domains shown, humanized IgG; constant regions not specified) VH: EVQLVESGGGLVQPGGSLRLSCAASGFTFSSFGMHWVRQAPGKGLEWVSYISSGSSPIYYVDKLKGRFTISRDNAKNSLYLQMNSLRAEDTAVYYCARAGYAVRNALDYWGQGTLVTVSS VL: EIVMTQSPPTLSLSPGERVTLSCKSSQSLLNVGNQKNYLAWYQQKPGQAPRLLIYGASTRESGIPARFSGSGSGTDFTLTISSLQPEDFAVYYCQNDLFYPLTFGGGTKVEIK | – | % specific cytotoxicity @ 6.67 nM, NUGC4-CLDN18.2, PBMC [8]: 31.5%; ADCC EC50, NUGC4-CLDN18.2, PBMC [8]: 7.18 nM; EC50 [3]: 2.6 nM
14.1 | 0.31 | 1.06 | – | 413H9F8-H2L1 (antibody, V domains shown, humanized IgG; constant regions not specified) VH: EVQLVESGGGLVQPGGSLRLSCAASGFTFSSFGMHWVRQAPGKGLEWVAYISSGSSPIYYVDKLKGRFTISRDNAKNSLYLQMNSLRAEDTAVYYCARAGYAVRNALDYWGQGTLVTVSS VL: DIVMTQSPDSLAVSLGERATINCKSSQSLLNVGNQKNYLAWYQQKPGQPPKLLIYGASTRESGVPDRFSGSGSGTDFTLTISSLQAEDVAVYYCQNDLFYPLTFGGGTKVEIK | – | % specific cytotoxicity @ 6.67 nM, NUGC4-CLDN18.2, PBMC [8]: 34.3%; ADCC EC50, NUGC4-CLDN18.2, PBMC [8]: 5.97 nM; EC50 [6]: 2.43 nM
11.9 | – | 2.26 | 96.4 | reference antibody 175D10 (xi175D10) (antibody, human IgG1, kappa, V domains shown, Fc variant D356/L358; also called chimeric 175D10) VH: QVQLQQPGAELVRPGASVKLSCKASGYTFTSYWINWVKQRPGQGLEWIGNIYPSDSYTNYNQKFKDKATLTVDKSSSTAYMQLSSPTSEDSAVYYCTRSWRGNSFDYWGQGTTLTVSS VL: DIVMTQSPSSLTVTAGEKVTMSCKSSQSLLNSGNQKNYLTWYQQKPGQPPKLLIYWASTRESGVPDRFTGSGSGTDFTLTISSVQAEDLAVYYCQNDYSYPFTFGSGTKLEIKR | 16.8 | MFI_CHO-18.2/CHO-18.1 (@30 ug/ml) [9]: 1030; EC50 [3]: 9.32 nM; MFI_CHO-18.2/CHO-18.1 (@30 ug/ml) [10]: 1390; EC50 [11]: 7.24 nM; EC50 [6]: 7.52 nM; ADCC EC50, NUGC4-CLDN18.2 cells, PBMC [7]: 9.21 nM
2.3 | 1.81 | – | 159 | 357B8F8-VH-S61I-VL-S32I (antibody, human IgG1, kappa, V domains shown) VH: QVQLKESGPGLVAPSQSLSITCTVSGFSLTSYGVHWVRQPPGKGLEWLGVIWPGGNTNYNIALMSRLSISKDNSKSQVFLKMNSLQTDDTAMYYCARDRRLAMDYWGQGTSVTVSS VL: DIVMTQSPSSLTVTAGEKVTMTCKSSQSLLNIGNQKNYLTWYQQKPGQPPKLLIYWASTRESGVPDRFTGSGSGTDFTLTISILQAEDLAVYYCQNDYSYPFTFGSGTKLEIKR | 19.6 | ADCC EC50, NUGC4-CLDN18.2 cells, PBMC [7]: 4.87 nM
14.6 | 2.25 | 10.4 | 73.2 | 282A12F3 (T62A) (antibody, human IgG1, kappa, V domains shown, chimeric human IgG1, PTM site removed; also called 282A12F3-VH-NSA (T62A); 282A12 (T62A)) VH: QVQLKESGPVLVQPSQTLSLTCTVAGFSLTSYNVYWVRQPPGKGLEWMGVIWNTGATRYNSALKSRLSISKDTSKSQVFLKMNSLQTEDTATYYCARDSAMPAIPFAYWGQGTLVTVSS VL: DIVMTQSPSSLAVSAGETVTINCKSSQSLFGSVRQKNYLAWYQQKPGQSPKLLIYLASTRESGVPDRFIGSGSGTDFTLTISSVQAEDLAKYYCQQYYDIPWTFGGGTKLELKR | 21 | MFI_CHO-18.2/CHO-18.1 (@30 ug/ml) [9]: 811; EC50 [3]: 4.45 nM; MFI_CHO-18.2/CHO-18.1 (@30 ug/ml) [10]: 768; MFI_SNU620 (@30 ug/ml) [12]: 1520 MFI; ADCC EC50, NUGC4-CLDN18.2 cells, PBMC (1 donor) [7]: 9.52 nM
– | – | – | – | Xi282A12F3(T62A)-V2-DL (antibody, V domains shown) VH: QVQLKESGPVLVQPSQTLSLTCTVAGFSLTSYNVYWVRQPPGKGLEWMGVIWNTGATRYNSALKSRLSISKDTSKSQVFLKMNSLQTEDTATYYCARDSAMPAIPFAYWGQGTLVTVSS VL: DIVMTQSPSSLAVSAGETVTINCKSSQSLFGSVRQKNYLAWYQQKPGQSPKLLIYLASTRESGVPDRFIGSGSGTDFTLTISSVQAEDLAKYYCQQYYDIPWTFGGGTKLELK | – | % internalization, NCI-N87-CLDN18.2, 37 C 2 h [1]: > 50%; % internalization, NUGC4-CLDN18.2, 37 C 2 h [1]: > 80%
15.3 | 0.34 | 1.49 | 12 | 364D1A7-VL-S32V (antibody, human IgG1, kappa, V domains shown, chimeric human IgG1, PTM site removed; also called 364D1A7-VL-32V) VH: DVQLVESGGGLVQPGGSRKLSCAASGFTFSSFGMHWVRQAPEKGLEWVAYISSGSGSIYYADTVKGRFTLSRDNPKNTLFLQMTSLRSEDTAIYYCATSYYYGNALEYWGQGTSVTVSS VL: DVVLTQSPSSLTVTEGEKVSMSCKSSQSLFNVGNQKNYLTWYQQKPGQTPTLLIYWASTRKSGVPDRFTGSGSGTDFTLTINTVQAEDLAVYYCQNVYSYPLTFGAGTKLDLKR | 26.6 | EC50 [11]: 3.87 nM; ADCC EC50, NUGC4-CLDN18.2 cells, PBMC [7]: 6.36 nM
– | – | – | 9.56 | 364D1A7-VL-S32L (antibody, human IgG1, kappa, V domains shown) VH: DVQLVESGGGLVQPGGSRKLSCAASGFTFSSFGMHWVRQAPEKGLEWVAYISSGSGSIYYADTVKGRFTLSRDNPKNTLFLQMTSLRSEDTAIYYCATSYYYGNALEYWGQGTSVTVSS VL: DVVLTQSPSSLTVTEGEKVSMSCKSSQSLFNLGNQKNYLTWYQQKPGQTPTLLIYWASTRKSGVPDRFTGSGSGTDFTLTINTVQAEDLAVYYCQNVYSYPLTFGAGTKLDLKR | – | –
